assay: soluble on expression in E. coli; label from the status in PepcDB or PDB records

Sequence | soluble on expression in E. coli
MALVPYEESAAIGLQKFHKPLATFSFANHTIQIRQDWRQLGVAAVVWDAAVVLSMYLEMGAVELRGCSAVELGAGTGLVGIVAALPGAQVTITDRKVALEFLKSNVEANLPPHIQPKAVVKELTWGQNLESFSPGEFDLILGADVIYLEDTFTDLLQTLGHLCSNNSVILLACRIRYERDSNFLTMLERQFTVSKVHYDPEKDVHIYKAQKRNQREDL | not soluble
MGSDKIHHHHHHMRILRVAQDIFPDKVGGAPYHIHALSRDQAEMGHDVTVLTVSNDQSKPQTEQRAGYTLVRLSPRIELFGNALFAGTVKYLRNAREYDVVHAHSHLFFSSNLTAAYSRVTDIPLAVTCHGLMSQRVPEWFSRFHLNTVGRFTYNAADVLFSYTAPERERLRDLGVSSDIRVIHNGIDVDRFTPVGATYDRITDATGPAVVFVGRLVEGKRPRDVLKAFQTVQNNIPEAKLFFCGDGPLRDKLEQIVERENMRESIRFLERVPYQEMPAVYRAADLFVLASRTEGFPRSVMESMACATPILSTRLEQTEQVIEQAGRTVPVGDTTALADAMSSMLDDRAALRKLGQAGREIVMREYDWSETVEQTTQTLGTISTSTPSQQQVDSGQAEEQVIPAGSNTEHEQ | not soluble
MSLEARVLTGAALEARLDEVARLRIAVFRDWPYLYEGSMDYERSYLSTYRTSPGAILVGAFDGDRLVGASTGTPMEDHAEDFAAAFARTGLPLDEIFYCAESVLLPDYRGHGMGHRFFDLREAHARALGRRHSAFCSVIRPEDHPLRPAAARSNEPFWRKRGYAPLPGVVAHYGWTDVGEERETQKPLQFWIRDL | not soluble
MVAKIKKFSDSTLSVLNNGERRFYVYCLTDLKKDKILYIGKGCGNRIFEHEWVASRSQDPVSGEIIDRKLKAISKCKKLGRYIISYHLTEVEALAAESALIHFVKSVLGKKLKNKIAGHGPGGISVEELDRRFGFSSLPLNEINPDGLILAIKIHNAFDLDTDEELDYLFDNQDDANLKSRTLGNWVIGKDVASKVKYVIGVHTGLQNAVVSAYEVDGFETMVEETKNGRKQSRYRFRTTSRSEEVLAKLGLQQKCLPELKFGSGGEKAYIRPKTETETEQENIQTTPNPKIKKEKTKSLEHHHHHH | soluble
MKIGIVGATGYGGTELVRILSHHPHAEECILYSSSGEGNVYSEGYPHLTGLADQQLKPIDMNTIKHEIDIMFLAAPPGVSSELTPKLADAGITVIDLSGDLRIKEPAEYEKWYKRTAAPKAVIQEAVYGLAELNQLQIQQAKLIANPGCFPTAVLLGLAPLAQKKLLDESFVIVDAKTGVSGAGRKASMGTHFSELNDNFKIYKVNEHQHTPEIEQALNEWQPGLGPITFSAHLVPMTRGIMATMYTRLTCDLTADDLHDLYSEFYQDSYFVRVRPKGQYPQTKEVYGSNFCDIAVTLDERTNRVTIVSVIDNLMKGAAGQAVQNFNLMNGWNEETGLTIITPIYP | not soluble
GSGSEPAVCEMCGIVGTREAFFSKTKRFCSVSCSRSYSSNSKK | soluble
GSHMSDGLPNKKRKRRVLFTKAQTYELERRFRQQRYLSAPEREHLTSLIRLTPTQVKIWFQNHRYKTKRAQNEKGYEGHP | soluble
MSLKKILIIVPDGGMLFESAGIADILMQANRLHPEGAREICYQVKLATTQPHQVIHGQSGLNLLADHRLHEIDPREPLDTIMITGRGQNPQEGMAVVDWLRLAAPHARRIVSICGGAMLLAQTGLLDGRRATTHWKLLETMQAEFPQIRVEGGPLYIQDEHIWTSGGVSSGFDLTLALVEEDYGEGHHHHHH | not soluble
MVWFFEYYDGCGLAIKVKKKLYEAEGVQKVEIYETESMGKMLVIDGKIQLTELDEPFYHEMLVHVPMLSHENPRKVAVIGGGDGGALREVLKHNVERAVLVDIDRNVIDLSRKFLKIDHGAFEDERVEIAIMDGKEFLRDCEIFDVIIVDSTDPVGVSDTLFDREFFELARQKCDVISLQSQSPLIQKEYFRTLLVNSAPFERRDVYLSCVPTYPLALWSFIIGGEYDFSNLEERFERIKGKTVHYNPDVHRAAFALPEWLKKEVEACILEHHHHHH | soluble
MSMEFDAVIIGGGVSGCATFYTLSEYSSLKRVAIVEKCSKLAQISSSAKANSQTIHDGSIETNYTPEKAKKVRLSAYKTRQYALNKGLQNEVIFETQKMAIGVGDEECEFMKKRYESFKEIFVGLEEFDKQKIKELEPNVILGANGIDRHENIIGHGYRKDWSTMNFAKLSENFVEEALKLKPNNQVFLNFKVKKIEKRNDTYAVISEDAEEVYAKFVLVNAGSYALPLAQSMGYGLDLGCLPVAGSFYFVPDLLRGKVYTVQNPKLPFAAVHGDPDAVIKGKTRIGPTALTMPKLERNKCWLKGISLELLKMDLNKDVFKIAFDLMSDKEIRNYVFKNMVFELPIIGKRKFLKDAQKIIPSLSLEDLEYAHGFGEVRPQVLDRTKRKLELGEKKICTHKGITFNMTPSPGATSCLQNALVDSQEIAAYLGESFELERFYKDLSPEELENLEHHHHHH | soluble
MPCRGLHAIPAGPPEFPELATIYVVCGDKLNVMIDAGVTNSIMDSSFLEKLDLVILTHIHIDHIGLLPEILDRYKNAKVMIKNGFKKFLTTEDGVRRLNESSEKVLGDLYYIYGEFTKIDPDKVVEVEGGEMIDIGDGKTLKIIYTPGHAKHHISVVSDDILFTGDSGGAYFNGAVIPTTPPPLDYDNYVNSLRLQISLKPKVVGLAHGGLVSPNILEQHLDQMLGKESFDIGEIDIGGIGGEILRKQVEVNLRGLNEALGRNKKTLLEHHHHHH | not soluble
MTEPSTSGAQDHDDYLVTLSSPQRQCTIRVVQPASALKRKLPTSSVPEFNPDSYGESIPENAPRPVCETCSVAWSTWAAYEFHMLQTHIIYRPFRCSGCRNLNFHTEDEGKHHLEHFHGGKPGSFQLIKQTDFAKENQLIECLENAKTTEQLGISKERLENGLKMIEKLQKIKFKAVKVHLPCCLRHEMISKHTETEKEAPPQEKSVTNAQKPGNPALLSLESRNYDYEQQDTVGI | not soluble
MAHHHHHHMESAIGLSVPLYQPHAPAPGAVIDPDMVEDHVSFLRTVRAFHDYKRQALAAREMRCTNFRKLQDQHRHLLCIDLDKILEKYLECIKVNSAFFDAICEASEELFDSYWPEGTTVFMKEVPPPTPLDMNKVFSTLRQFVRDWSAEGVAERDCVYKPILDTLDRCFPNRSERENVRVLIPGAGLCRLSVELALHGFFAQANEFSYHMLIAGHYIQNHVFESCQHKIYPYSDSTCNLVNRADQFAEVQIPDLCASEAIDALRDKGLSFGQLSMVAGDFTEVYAKPHQHKTWSVVATCFFIDTAHNIIEYLVIIYNLLVPGGYWVNVGPLLYHFADSADDMSIELSLGEVLTVAQRIGFVLNGPPSFIDTTYTNNQRSMKQLVYRCAFFVLQRPLADRQTEQMDRNVEAKVT | not soluble
MLLNEKDFKNEGVKIAALIMAESARTAPKSKGEDTIEIVYVDGEEMEKIAAKMEEMAEGGDKDFIRDAESVRKSQAILLIGAKGDRTVGVNCQACGFESCSEFKKADRKGENFVGPNCAFRMIDLGIALGSAVKVSAMLGIDTRIMYRIGIAAKKLGMIDADVVMGVPLSALGKSPYFDRAPKK | not soluble
MQRTLNVGVILCESFISNAQNPVNSYIKIYENVRMFEFAIKLLQESRINFQKILLYVLEEQIPLVEKVVAKYENCWVFRSKHNEVEDIYEAKGFIEDKYKIGLKSSKNQASSYYDNCCFVVLEACRPLTSKKVVKNVYEKAMIDGAAVAVLPFERQLVCGDNTKAVRQLKDKGNMNYWRQSSTWELQFPQAYTLNKLNQYHKNLFMKARNMLDLMNISAKNPLSIVDGSAYSFRVVTSLDFEILLGILRNG | not soluble
MSLTNFVCHTLYHLLITIIKLKDKENTRIFICDTITDYETWVKILNDQGIRTESFKEFAYREQLQNKNIEEVMELVDSDLNHYFERVDTQVYLFNDDTLIGRYMVYLGKNYHLIEDGYNCFQAKLFLGGSVVKRVIKTYLFKKYVPYGFSKYCLSIEVNSLVGLPHDIRSKKYKELPRKKLFDSLNKEQKSLIFKIFKTKPLTITPKSVLLLTQPLAQDKWYKTPTERFQSIQEQYDYFDDIVQEYRTLGYNVYLKVHPRDVVDYSKLPVELLPSNVPMEIIELMSTGRFECGITHSSTALDSLTCVDKKITLVDLKDIKEGHHHHHH | not soluble
MSENPVVSDKKPGPSKDSSFFSDLYDNLNQNPYFNAGAGLAGIGIAMSFLRRTAQISNTYFRRRFMINLQINNEDAAYPWLLDFINNRSATQTRNLSANTVVHQAESGKTELSISFLPGHGTHFFVHDYRWIKVERQREKQVIQRDGIRTPFETVTLTTLGSDVKFFKRMLEQSAKEAIDNAETGLVIYQAVGPQWIRFGVPRKKRDIESVILDGRICEELVEDFQEFISSATWYADRGVPYRRGYLFYGPPGTGKSSFISALASHFGYSVCLLSLSERTLDDDRLNHLLNTAPPNSVVILEDIDAAFVSREDPMSNHPAYQGLSRVTFSGLLNALDGVACAEERLTFMTTNYVERLDPALIRPGRVDRKQYFGNATDGMLSKMFSRFYRQPSDSVLADEFVKRVSEHKTELSPAMIQGHFLMYKQDPRAALDNIKNMFKTV | not soluble
MIKYSIRGENIEVTEAIREYVETKLSKVEKYFNEAQELDTRVNLKVYREKTAKVEVTILIDSITLRAEDVSQDMYGSIDLVVDKIERQIRKNKTKIAKKYREKIPASQVFTTEFEAEPDEEAVSQRIVRTKNVNLKPMDVEEALLQMELLGHDFFIYTDAEDNTTNVLYKREDGELGLIEAKGNLEHHHHHH | soluble
MSLNNDDSPALTLDEYKQAQAIVILGGGSYQTKELYAETASGAPQLERLRYAAFLQKETGLPILTTGYSLIGISEGDLMAKELNQFFNVPTQWIENKARNTEENASFTKNILIKDHIQKIILVTNQWHMKRAKYLFEKQGFDVLPAAAASYGSKGNLSAKSFIPDLGALNSNMVLLKEWIGYWKAHYVEEGHHHHHH | not soluble
MAAFSVHILGCGSALPTTHHHPSSQVIDLRDKLYMIDCGEGVQRQFRHEKLHFGRLIHIFISHLHGDHCFGLPGFISTLGLLGRTGTLHVHGPEGIERFLSPILEQFCHRMPYQVEIHTIDASRHALVHEDKSVKVYSIPLSHRIPAVGYLFEEKCRARHLNKAAAEFYNIPLAEYPLIIEGSDYTTPDGRIIPNRHLTTPGTPPRRYAYCSDTEFCPSIVPIIQGVDLLYHEATFMEEDRARAKETFHSTAKEAAEIARQAGAKRLLIGHYSGRYKDVQGLLEEAQSVFKPTIAANERMRIDL | not soluble
MEQKNEEIEAIDDRMIAGVEVNFQKMRRSKHKTEERLTSGQVDAFAQKLFEAYPDGSLEGFLDIDDVQKKKLDEQRQEFTGDYPIVQPVLDGSRELMVVLRYNPLYHAVEIYDPVQIYDSEGIPMVVKPIREQIVNLFAHLFLDKIRLIFDIEYEQQADKCSDRLRAVGAMMAIALGYNPAAMDYNLKGISKLVKKILNSESPDFKKFEKADIGTLNAKYSGQNRVTMFIGNNGETLLATRNVYGLEKHALKTGLGKMDKNGHVVERESFLEEEFHDETIYKQFHAPDLGMGKPDNVNAIKLFHVDYRDYDLQNANGLERPIYLEPYKPVQSDCFAVPNLTSTLDRVSSNGELLKYVNEVMQSITPYTPYHLHAQSVEYLRYTPRHMNMCINPLQAIRAWALLANMADGKTNTDLLNFVGKYTYPGQLENNKMMNDDILNLHFEAEKLFEGCVRVFTELPKHLWHNEDIRIIQNSYYGGKSLRGAMQHHCFATDPDGLYSCHRINEEVALSTHGAVNFVVPENHAPNWRASIALVSAMDCTFYWKTYAKPKLMDNFNFVNEQYGASKCVGYFAHADFKFFEDIYCLESRIPGVRLYITFESPDKMDSKKEFMSKLHEKIQTCGDWHTTFDSPVFLPLCTTSTPLSLYAHAKASGLSRIFSSEKSELLEMKSIPARGGARQFSTLYDHYHKTVFEVHGSDPKVENFMRKRPRRMFDQFSPARAHQCVDDSMAELHGKYQMKNPTKEFNNKMNINPLLTYRENHLNHDEPSFEWLHENHEFDLKDPKALMFNKPFYYVMTRALVGKNQLIVCAGYFNNTTWVKQQ | not soluble
